Test results: patent publication US20030194403A1

Biological target: soluble epidermal growth factor receptor (EGFR), purified from A431 cells (Sigma E 3641) (human) (UniProt P00533)
Experiment: ELISA, inhibition of EGF-biotin binding to immobilized EGFR (FIG. 8)

m225, a mouse IgG2a anti-EGFR antibody (hybridoma ATCC HB-8508)
IC50: 30 nM
